{"source": "patent US20240124586A1", "about": "(WUXI BIOLOGICS IRELAND, published 2024)", "binders": {"B1": {"name": "U6T1.G19.IgG4, bispecific anti-PD-1 x CTLA-4 (bispecific antibody)", "heavy": "not shown", "light 1": "SYELTQPLSVSVALGQTARITCGGDNIGNKDVHWYQQKPGQAPVLVIYRDSNRPSGIPEGFSGSNSGNTATLTISRAQAGDEADYYCQVWDSIWVFGGGTKLTVLGQPKAAPSVTLFPPSSEELQANKATLVCLISDFYPGAVTVAWKADSSPVKAGVETTTPSKQSNNKYAASSYLSLTPEQWKSHKSYSCQVTHEGSTVEKTVAPTECS", "light 2": "not shown", "notes": "Symmetric tetravalent format G19; also called U6T1 in G19 format"}, "B2": {"name": "U6T5.G19.IgG4, bispecific anti-PD-1 x CTLA-4 (bispecific antibody)", "heavy": "not shown", "light 1": "B1 light 1", "light 2": "EIVLTQSPDFQSVTPKEKVTITCSANSALSYMYWYQQKPDQSPKLWVHGTSNLASGVPSRFSGSGSGTDFTLTINSLEAEDAATYYCHHWSNTQWTFGGGTKVEIKPDIQNPDPAVYQLRDSKSSDKSVCLFTDFDSQTQVSQSKDSDVYITDKCVLDMRSMDFKSNSAVAWSQKSDFACANAFQNSIIPEDTFFPSPESS", "notes": "T5 = anti-CTLA-4 antibody W3162_1.154.8-z35; also called U6T5 in G19 format"}, "B3": {"name": "U6T5.G25R.IgG4, bispecific anti-PD-1 x CTLA-4 (bispecific antibody)", "heavy": "EVQLLESGGGLVQPGGSLRLSCAASGFTFSSHAMSWVRQAPGKGLEWVSTITGGGGSIYYADSVKGRFTISRDNSKNTLYLQMNSLRAEDTAVYYCAKNRAGEGYFDYWGQGTLVTVSSASTKGPSVFPLAPCSRSTSESTAALGCLVKDYFPEPVTVSWNSGALTSGVHTFPAVLQSSGLYSLSSVVTVPSSSLGTKTYTCNVDHKPSNTKVDKRVGGGGSGGGGSQVQLVQSGAEVKKPGSSVKVSCKASGYTFTNYFMNWVRQAPGQGLEWMGRVDPEQGRADYAEKFKKRVTITADKSTSTAYMELSSLRSEDTAVYYCARRAMDNYGFAYWGQGTLVTVLEDLKNVFPPEVAVFEPSEAEISHTQKATLVCLATGFYPDHVELSWWVNGKEVHSGVCTDPQPLKEQPALQDSRYALSSRLRVSATFWQNPRNHFRCQVQFYGLSENDEWTQDRAKPVTQIVSAEAWGRYGPPCPPCPAPEFLGGPSVFLFPPKPKDTLMISRTPEVTCVVVDVSQEDPEVQFNWYVDGVEVHNAKTKPREEQFNSTYRVVSVLTVLHQDWLNGKEYKCKVSNKGLPSSIEKTISKAKGQPREPQVYTLPPSQEEMTKNQVSLTCLVKGFYPSDIAVEWESNGQPENNYKTTPPVLDSDGSFFLYSRLTVDKSRWQEGNVFSCSVMHEALHNHYTQKSLSLSLGK", "light 1": "B1 light 1", "light 2": "B2 light 2", "notes": "also called U6T5.G25R.uIgG4; U6T5 in G25R format"}, "B4": {"name": "WBP3055_1.153.7.hAb (antibody, V domains shown)", "VH": "EVQLLESGGGLVQPGGSLRLSCAASGFTFSSHAMSWVRQAPGKGLEWVSTITGGGGSIYYADSVKGRFTISRDNSKNTLYLQMNSLRAEDTAVYYCAKNRAGEGYFDYWGQGTLVTVSS", "VL": "SYELTQPLSVSVALGQTARITCGGDNIGNKDVHWYQQKPGQAPVLVIYRDSNRPSGIPEGFSGSNSGNTATLTISRAQAGDEADYYCQVWDSIWVFGGGTKLTVL", "notes": "anti-PD-1 antibody, parent of the U6 arm; also called W3055_1.153.7 (named U6); WBP3055-1.153.7.uIgG4k"}, "B5": {"name": "T1U6.G19.IgG4, bispecific anti-CTLA-4 x PD-1 (bispecific antibody)", "heavy": "not shown", "light 1": "not shown", "light 2": "SYELTQPLSVSVALGQTARITCGGDNIGNKDVHWYQQKPGQAPVLVIYRDSNRPSGIPEGFSGSNSGNTATLTISRAQAGDEADYYCQVWDSIWVFGGGTKLTVLPDIQNPDPAVYQLRDSKSSDKSVCLFTDFDSQTQVSQSKDSDVYITDKCVLDMRSMDFKSNSAVAWSQKSDFACANAFQNSIIPEDTFFPSPESS", "notes": "Symmetric tetravalent format G19; T1 (ipilimumab) on top, U6 (W3055_1.153.7) as TCR-chimeric Fab at the C-terminus"}, "B6": {"name": "U6T5.G19R.IgG4, bispecific anti-PD-1 x CTLA-4 (bispecific antibody)", "heavy": "EVQLLESGGGLVQPGGSLRLSCAASGFTFSSHAMSWVRQAPGKGLEWVSTITGGGGSIYYADSVKGRFTISRDNSKNTLYLQMNSLRAEDTAVYYCAKNRAGEGYFDYWGQGTLVTVLEDLKNVFPPEVAVFEPSEAEISHTQKATLVCLATGFYPDHVELSWWVNGKEVHSGVCTDPQPLKEQPALQDSRYALSSRLRVSATFWQNPRNHFRCQVQFYGLSENDEWTQDRAKPVTQIVSAEAWGRYGPPCPPCPAPEFLGGPSVFLFPPKPKDTLMISRTPEVTCVVVDVSQEDPEVQFNWYVDGVEVHNAKTKPREEQFNSTYRVVSVLTVLHQDWLNGKEYKCKVSNKGLPSSIEKTISKAKGQPREPQVYTLPPSQEEMTKNQVSLTCLVKGFYPSDIAVEWESNGQPENNYKTTPPVLDSDGSFFLYSRLTVDKSRWQEGNVFSCSVMHEALHNHYTQKSLSLSLGGGGGSGGGGSGGGGSGGGGSQVQLVQSGAEVKKPGSSVKVSCKASGYTFTNYFMNWVRQAPGQGLEWMGRVDPEQGRADYAEKFKKRVTITADKSTSTAYMELSSLRSEDTAVYYCARRAMDNYGFAYWGQGTLVTVSSASTKGPSVFPLAPCSRSTSESTAALGCLVKDYFPEPVTVSWNSGALTSGVHTFPAVLQSSGLYSLSSVVTVPSSSLGTKTYTCNVDHKPSNTKVDKRV", "light 1": "B5 light 2", "light 2": "EIVLTQSPDFQSVTPKEKVTITCSANSALSYMYWYQQKPDQSPKLWVHGTSNLASGVPSRFSGSGSGTDFTLTINSLEAEDAATYYCHHWSNTQWTFGGGTKVEIKRTVAAPSVFIFPPSDEQLKSGTASVVCLLNNFYPREAKVQWKVDNALQSGNSQESVTEQDSKDSTYSLSSTLTLSKADYEKHKVYACEVTHQGLSSPVTKSFNRGEC", "notes": "also called U6T5 in G19R format"}, "B7": {"name": "T3-Design_2-QSKE (IgG1) (antibody)", "heavy": "not shown", "light": "DIVMTQSPDSLAVSLGERATINCKSSQSLLNSRTRKNYLAWYQQKPGQPPKLLIYWASTRQSGVPDRFSGSGSGTDFTLTISSLQAEDVAVYYCTQSHTLRTFGGGTKVEIKPDIQNPDPAVYQLRDSKSSDKSVCLFTDFDSQTQVSQSKDSDVYITDKCVLDMRSMDFKSNSAVAWSSKSDFACANAFKNSIIPEDTFFPSPESS", "notes": "De-glycosylation mutant of Design_2; tested as supernatant"}}, "key": {"[1]": {"target": "T1, human PD-1 on engineered CHO-S cells (W305-CHO-S.hPro1.C6) (human, UniProt Q15116 25-288)", "T1 construct": "whole, on cells; also called human PD-1 engineered cells; PD-1+ cells", "T1 sequence (Q15116 25-288, change not shown)": "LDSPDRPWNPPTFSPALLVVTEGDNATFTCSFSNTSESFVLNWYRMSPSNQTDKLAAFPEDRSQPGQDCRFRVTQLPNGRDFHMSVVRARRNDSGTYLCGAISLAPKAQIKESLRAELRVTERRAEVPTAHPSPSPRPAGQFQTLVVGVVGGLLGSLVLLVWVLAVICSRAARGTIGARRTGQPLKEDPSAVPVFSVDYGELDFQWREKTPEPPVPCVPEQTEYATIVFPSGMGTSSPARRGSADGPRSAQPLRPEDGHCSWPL", "assay": "FACS on human PD-1 engineered cells", "protocol": "(§1) Engineered human PD-1 expressing cells W305-CHO-S.hPro1.C6 were seeded at 1×10⁵ cells/well in U-bottom 96-well plates (COSTAR 3799). Antibodies with 3.16-fold titration in 1% BSA DPBS from 200 nM to 0.002 nM were added to the cells. The plates were incubated at 4° C. for 1 hour. After wash, […] 1:125 diluted PE-labeled goat anti-human antibody (Jackson 109-115-098) was added to each well and the plates were incubated at 4° C. for 1 hour. The binding of the antibodies onto the cells was tested by flow cytometry and the mean fluorescence intensity (MFI) was analyzed by FlowJo."}, "[2]": {"target": "T1, human PD-1 on engineered CHO-S cells …", "assay": "FACS on human PD-1 engineered cells", "protocol": "as §1", "remark": "listed apart in the source"}, "[3]": {"target": "T2, human CTLA-4 on engineered 293F cells (W316-293F.hPro1.FL) (human, UniProt P16410 36-223)", "T2 construct": "whole, on cells; also called human CTLA-4 engineered cells; CTLA-4+ cells", "T2 sequence (P16410 36-223, change not shown)": "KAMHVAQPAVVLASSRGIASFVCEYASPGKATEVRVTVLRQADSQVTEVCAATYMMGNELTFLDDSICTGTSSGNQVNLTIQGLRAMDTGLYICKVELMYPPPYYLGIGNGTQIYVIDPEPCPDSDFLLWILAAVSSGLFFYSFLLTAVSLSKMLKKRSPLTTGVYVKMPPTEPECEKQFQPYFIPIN", "assay": "FACS on human CTLA-4 engineered cells", "protocol": "(§2) 3.16-fold titrated Abs with 1% BSA DPBS from 200 nM to 0.002 nM were added to the cells. Plates were incubated at 4° C. for 1 hour. After wash, […] 1:150 diluted PE-labeled goat anti-human antibody (Jackson 109-115-098) was added to each well and the plates were incubated at 4° C. for 1 hour. The binding of the antibodies onto the cells was tested by flow cytometry and the mean fluorescence intensity (MFI) was analyzed by FlowJo."}, "[4]": {"target": "T3, cynomolgus PD-1 on engineered 293F cells (W305-293F.cynoPro1.FL.pool) (cynomolgus)", "T3 construct": "whole, on cells; also called cynomolgus PD-1 engineered cells", "assay": "FACS binding to cynomolgus PD-1 engineered cells", "protocol": "as §2, with “4.0-fold” for “3.16-fold”, “40 μg/ml” for “200 nM”, “0.0001526 μg/ml” for “0.002 nM”"}, "[5]": {"target": "T1, human PD-1 on engineered CHO-S cells …", "assay": "FACS competition: blocks human PD-L1 protein (W315-hPro1.ECD.mFc) binding to human PD-1 engineered cells", "protocol": "In order to test whether the bispecific antibodies could block hPD-L1 binding to hPD-1 protein, a competitive FACS was conducted. […] Plates were incubated at 4° C. for 1 hour. After wash, the binding of W315-hPro1.ECD.mFc to cell expressive human PD-1 was detected by FITC-labeled goat anti-mouse antibody (abcam 98716 1:125). The competition binding of antibodies to the cells was tested by flow cytometry and the mean fluorescence intensity (MFI) was analyzed by FlowJo."}, "[6]": {"target": "T4, human CD3 on CD3+ Jurkat cells (human, UniProt P07766 23-207; P09693 23-182; P04234 22-171)", "T4 construct": "whole, on cells; also called CD3 positive Jurkat cells", "T4 sequence (P07766 23-207, chain 1 of 3)": "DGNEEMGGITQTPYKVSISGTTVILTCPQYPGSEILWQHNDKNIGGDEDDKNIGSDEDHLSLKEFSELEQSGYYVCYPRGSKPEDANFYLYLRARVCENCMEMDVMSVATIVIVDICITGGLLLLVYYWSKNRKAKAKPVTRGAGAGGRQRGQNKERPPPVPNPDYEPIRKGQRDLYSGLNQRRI", "T4 sequence (P09693 23-182, chain 2 of 3)": "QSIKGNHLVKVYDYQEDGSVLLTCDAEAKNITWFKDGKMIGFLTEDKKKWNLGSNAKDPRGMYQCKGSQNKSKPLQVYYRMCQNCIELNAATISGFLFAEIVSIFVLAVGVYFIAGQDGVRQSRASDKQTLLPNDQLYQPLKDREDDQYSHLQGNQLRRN", "T4 sequence (P04234 22-171, chain 3 of 3)": "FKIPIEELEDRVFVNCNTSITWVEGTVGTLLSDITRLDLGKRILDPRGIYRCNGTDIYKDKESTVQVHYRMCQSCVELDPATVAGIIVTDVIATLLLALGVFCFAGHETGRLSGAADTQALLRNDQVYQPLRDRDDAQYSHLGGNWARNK", "assay": "FACS on CD3+ Jurkat cells, Expi293 supernatant"}}, "note": "Read-outs that look alike come from different tables or passages of the source."}
{"binder": "B1", "values": [{"measurement": "EC50", "setting": "[1]", "value": 2.19, "unit": "nM"}]}
{"binder": "B2", "values": [{"measurement": "EC50", "setting": "[2]", "value": 0.97, "unit": "nM"}, {"measurement": "EC50", "setting": "[3]", "value": 8.93, "unit": "nM"}]}
{"binder": "B3", "values": [{"measurement": "EC50", "setting": "[2]", "value": 1.56, "unit": "nM"}, {"measurement": "EC50", "setting": "[3]", "value": 8.36, "unit": "nM"}]}
{"binder": "B4", "values": [{"measurement": "EC50", "setting": "[4]", "value": 3.48, "unit": "nM"}, {"measurement": "Top(MFI)", "setting": "[4]", "value": 56700, "unit": "MFI"}, {"measurement": "IC50", "setting": "[5]", "value": 0.888, "unit": "nM"}, {"measurement": "Inhibition %", "setting": "[5]", "value": 98.6, "unit": "%"}]}
{"binder": "B5", "values": [{"measurement": "EC50", "setting": "[1]", "value": 7.93, "unit": "nM"}]}
{"binder": "B6", "values": [{"measurement": "EC50", "setting": "[2]", "value": 1.26, "unit": "nM"}, {"measurement": "EC50", "setting": "[3]", "value": 8.23, "unit": "nM"}]}
{"binder": "B7", "values": [{"measurement": "EC50 (read off the curve)", "setting": "[6]", "value": "~0.5", "unit": "nM"}]}
